# From the DeepSol protein solubility set
# Experiment: soluble on expression in E. coli; label from the status in PepcDB or PDB records
row,Sequence,soluble on expression in E. coli
1,MSLATSRTVLPDDLLINASDEVLTRQDLVLTALGRRPADRLLRVGRLLDVHSRTWLDDQEIVIKGRRIAYVGPAGSYAGEVNERFSEPDLAAVPGFGEAHKHIESSHLTPEWEAALVMPHGVTWTCEASHEFSNVNGARNLEFWLEARRRGSPMKIFPLPGSAVPPTAYEWGGGWFGYDEQKAFLSESLMVAGLDEVMDWPSISDPGNPSYDRLWGMIGATFEQRGVVEGHGAGLRDMASINAFAAAGLASDHEGWFLDEIWQKLLHGLFIELRPHSLPEVIRGLIDKGLTDWSQIALVTDDRSASDTLKIGATDHNVRLAIENGLAPETAIQCVTLNPARHMRLTPWVGSIAPGRFADIVLLSDVASLSIEKVWADGRPASEGATFIGVRPEIDWPQWATRTVKIDRTVTADDFRIEAPPNRTTVNAALLRPFHWHDDFITMELPVEEGAVQRDAARNVTKFSIVDRFSGEARVSRMFWLGTGPRTPETALASTLGHDKHNIWTVGSSDEAMAISVNALNEQQGGWVLVSGGKILARVRYEVGGLMTARSAEALDAEMQALYAAGAGIDWMYEPTFSPRWWPGFPERLSFATLTCSPWRWVLVAPSELAPDGFVNVLTGKTHPIVWEGHHHHHH,soluble
2,MSLATSYVGTVAGEKITTKEFKYFLGYVKIQMENDAQLQDQASKEAFWDSKIEGVDAKELAKQKALDSCKEFKIQLLKARERGLFLNDKDMQEIENSITTLLNQMAQFDQAAKNTGVEVMSAEEMLKDTYGVTIQEYKEILKDLRLVLKLVEDEQKNITITEEELRNRYNENKDVFDKITVRHIIFYTINPKTDVSLSEDAKKKAYENAKKALERANKGEDMEALALELSEDSGVEGNKGILEINSLKVNEPKLSNLVKWAYEHKVGDTDIVETGYGYHVVKIEKRTEYKDVVQNVKNVILSERYNQILGQWKQEPQYDLKKNEFALKRIKEGHHHHHH,soluble
3,MSLDAAAATLPRKSGSVDRLVRLAEADMAGVNRLITDRMQSDVAIIPALAEHLIAAGGKRLRPLMTVAAARLAGADNDHFQKLAAAVEFIHTATLLHDDVVDGSQLRRGKVAAHLIWGGAQSVLVGDFLFARAFELMVETNSMKALEILARASRVIAEGEVLQLMRSHDLNLSQAVYLEIIQAKTAELFAAASEAGAVSAGVDVAESEALRDYGLNLGLAFQLADDALDYGGATETLGKNAGDDFREGKATLPLLLAIARSGPREAEFWERAIGRREQTEADFRRARELIIGSGALDATLDLAADYADKAKAALAMFPANDWREALEELADFAVSRRAEGHHHHHH,soluble
4,MSLDAISAATHSDPYFYYTRLRARGGLTYDCALRLWVASSAAAVAAVLDHPACQVRPSTEPVPQAIAGRPAGQLFGRLMRMNDGPRQRCPRAAIEPALQGLCTAGLETHLARWQPALAGPACAADLQRWQFVLPVALLASLLGVPAEQCETLARRTGEFVACFSPLSDQPRLQAADRAALELDAQMQALVQAPQHSPLLRQILDRSGELAPADLRANLAGLLAQTHDACAGLVGNSLVALLAAPAMQQRLRQEPGLLGDWLLERQRLDPPVQNTRRFVTAPCTVHGVELQAGETILVLLAAANQDPALAAITGSNPAHQGFSFGAGAHRCPGRELALGIVRCLLHALLQGPGLDALALDWQYQASVNGRIPLFSDRGEAEGHHHHHH,not soluble
5,MSLDEAWKSLEKLRGVKLLPGNKVLLKRGEVFNGELEITGQGIPEDRIYIDAYGDDERKPCIVGYDTSLYAARICNSDYITMQNLEIVNTGRQPLPYRSGLKIECMDYGVSQNIVVNNVTVRDVNGSLVKEKGGGCGIYIVNGGEKKISTFNRLTIENCHILRCTRNAMIWAAYSDRQNWHPSKHTVIRGNLIEEVPGDGIVPIGCDSTLIEYNVMRDCPDMLPDTEAAAGIWPWSCDNTLVQFNEVSGHKAPWDAQGFDSDWNCRGTVIQYNYSHDNYGGLVLVCNDGTADASFNVGNLGTIVRYNVSIGDGVRPEPTRAGMFSPAVHLAGPVKDSRITRNIIHVNRKPAADIDRTMITLDSWGGYPDSTFISGNIFYAPESSRFQLTESTHNFFEGNYYLGRFEKLPEDGKACQSAEIYQKEVLAKDENGYQGLALLMDTVEVTGVKGVFVNKEAIENFFSRLEKEGHHHHHH,not soluble
6,MSLDGEQTTREPVLKAMFLADTHLLGEFLGHWLDKLRREWQMERAFQTALWLLQPEVVFILGDIFDEGKWSTPEAWADDVERFQKMFRHPSHVQLKVVAGNHDIGFHYEMNTYKVERFEKVFSSERLFSWKGINFVMVNSVALNGDGCGICSETEAELIEVSHRLNCSREARGSSRCGPGPLLPTSAPVLLQHYPLYRRSDANCSGEDAAPAEERDIPFKENYDVLSREASQKLLWWLQPRLVLSGHTHSACEVHHGGRVPELSVPSFSWRNRNNPSFIMGSITPTDYTLSKCYLPREEGHHHHHH,not soluble
7,MSLDIFIMDPNEKLTSERLKDFLDRHAARLSRYERLMNMYMGKHPILYEKEKELGKPNNRLVVNFAKYIVDMLNGYFIGIPVKTIHENKEVAAKMKEIAKRNSQNDNNAELSKMCSIYGHAYEFLYQDENAHTRVTYVDPREAFVIYDNTVAQEPLYGVRVLKDDKERPYGTIYSRYDERDFFTSDDGELVIEEKGQEHFFGDVPLIEYVENNERQSAFESVETLINAYNKAISEKANDVDYFADAYLVILGAELDEETIKQIRDNRVINLKSGDGQKIVLEFLDKPNADTTQENLIERLERLIFQISMVANISDEKFGTSSGIALKYKLQPMENIALMKERKFNNGMIRRFKMMFNIPTNFGVDPDEYLNIEYVFTRNIPNNILEEAETAEKLAGITSRQTQLSVLSVVDNVQNELDRIQKEKEGEEINSFNRDMNSPFFGSGELDDGQEEEGHHHHHH,not soluble
8,MSLDIKTLKGFKDYLPKDSLIRIHIVRQIFSVLNSYNFDLIDTPVLEYSDLLLKKSGDETEKQIYRFKDNGGRDVSMRFDLTVPFARFVATNISALKLPFRRSQFGKVFRGENSQKGRYREFMQFDFDIVGEDTFRGDAEILSVVYYGLEEIFLNFIEGINKKFIIHYSHIGILNSFFEKLGLKEKSIFILRNIDKIDKIGIDKVKEALLLEIEKEAVDSILSLVSLQGTFKDKIQALKSILGDNESIKRVEDVFQHLSLLKIQDSFNLNLKISRGLDYYTGIVFESEVFGSNMGSVCSGGRYDNLVSSFSNSIQKISGVGGSFGVDRIKDIIDLEKFSYIKIFVTKARSKVLIVNLDSALQNYYYELATRFRNHDYSKVKNISCEVYFKNKNGKNIKEQIEYALSKEIRFLVFVGQEEYKENKMKVRDLTKKEELLLSFEESINLIKCNEKLEGHHHHHH,soluble
9,MSLDLEYTPEQQQLRAEIRATLQTVMTPERVAAVSEQMDGGPAVRECVRALAAANLLGVGWPKEYGGRGFSAIEQFIFAEEARRVSAPIPLVTLNTAGPTLMHYGTDEQKRRFLPAILDGTVEFAIGYSEPGAGSDLASVHTTAVRVGDEYVINGQKMFTSGAAYADYIWLAVRTDPDAKKHKGISILIVPTSSPGFSWQPLHTMPGISTFYTFYDDVRVPVSALVGAENQGWQLITTQLNFERAALGNLGALEPLFDKTLDWALSTELDGGRVIDQPWVRSALARVEAQVAAYKLVNLRVNAAMTKGALNMGEASAAKVFGTELTQQVARELLEVLDGNGVRRGAEAPLRGALESAYRQAVINTFGGGANEIQRDIIAMAALGMPRAEGHHHHHH,not soluble
10,MSLDLPPGVVALVNGTRITQEQLDRAIAQSGAQANPQVAQALKQQLIARELFRQQAAKNPAYDKLPAVKQAMQEAHDAVITQAWLKDNIKPAPITEEQVKARYDAIVASLGDKEYKARVIQLGDDVTAAQVLAQLKQGGDFAKLAQQYSTAPNKVRGGDMDWVSFKVPVEEGKTQNLPLPLAREIAALGIGAASTAPVEVGSQRYIVKVEAARPTQVPGYDTVRPAIRQALETAELERVTVQVVGGLLKAAKIVQEGHHHHHH,soluble
11,MSLDLPSRPPAPPEGVIGRRIRYADALEPEREEWFVAGTELAEVTAPEAPTPRIETPADGMIIALDPDIPARNQKLILRARPARAGMSFLLDGRPVGPAETPVKWPPEPGGHVLKLMDDRGRTLDLVKFQVRGMREGHHHHHH,soluble
